Data taken from patent publication US20220153818A1 (UNIVERSITY COURT OF THE UNIVERSITY OF ABERDEEN, published 2022).

Key:
human serum albumin = target: T1, human serum albumin (human, UniProt P02768 25-609); test: ELISA
T1 construct: also called HSA

[1] = target: T2, Recombinant Hyr1 N-terminus fragment (amino acids 63-350) with N-terminal 6xHis tag (Candida albicans, UniProt Q5AL03 63-350); test: ELISA, plate coated with recombinant Hyr1 N-terminus, titrated IgG1
T2 sequence: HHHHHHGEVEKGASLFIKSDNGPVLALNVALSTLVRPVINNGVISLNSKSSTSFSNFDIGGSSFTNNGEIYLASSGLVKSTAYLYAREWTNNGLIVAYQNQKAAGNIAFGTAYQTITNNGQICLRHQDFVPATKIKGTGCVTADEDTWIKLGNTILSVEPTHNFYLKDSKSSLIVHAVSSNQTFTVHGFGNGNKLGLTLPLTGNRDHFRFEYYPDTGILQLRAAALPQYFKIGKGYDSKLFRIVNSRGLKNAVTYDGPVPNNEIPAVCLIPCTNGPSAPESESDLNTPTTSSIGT

T1 sequence (P02768 25-609 limits assumed): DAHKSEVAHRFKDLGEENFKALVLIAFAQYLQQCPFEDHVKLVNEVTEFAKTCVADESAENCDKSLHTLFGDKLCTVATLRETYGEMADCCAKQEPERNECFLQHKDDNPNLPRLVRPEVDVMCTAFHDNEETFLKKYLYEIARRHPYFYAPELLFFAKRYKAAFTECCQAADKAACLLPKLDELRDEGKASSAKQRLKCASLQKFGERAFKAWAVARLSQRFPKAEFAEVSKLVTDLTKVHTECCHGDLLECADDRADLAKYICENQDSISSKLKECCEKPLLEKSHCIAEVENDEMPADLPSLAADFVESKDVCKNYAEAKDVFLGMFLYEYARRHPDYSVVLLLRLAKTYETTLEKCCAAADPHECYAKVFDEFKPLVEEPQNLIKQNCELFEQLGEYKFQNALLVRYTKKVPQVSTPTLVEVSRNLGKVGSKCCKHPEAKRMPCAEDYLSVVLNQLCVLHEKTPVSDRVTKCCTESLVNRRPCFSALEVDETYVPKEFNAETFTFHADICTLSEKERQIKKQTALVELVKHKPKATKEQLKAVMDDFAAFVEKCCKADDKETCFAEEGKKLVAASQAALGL

B1: AB123 (antibody, V domains shown)
VH: EVQLLESGGGVVQPGRSLRLSCAASGFTFSNYGMHWVRQAPGKGLEWVAVVWFDGSYKYYTDSVKGRFTISRDNSKSTLYLQMNSLRAEDTAVYYCVSPIMTSAFDIWGPGTMVSVSS
VL: QLVLTQPPSASGSPGQSVTISCTGTSSDVGGSNFVSWYQHHPGKAPKLMIYEVSQRPSGVPDRFSGSKSGNTASLTVSGLQADDEADYYCSSYAGSVVLFGGGTKLTVL
notes: also called 06-AB-123; anti-Hyr1 mAb AB123
Human serum albumin
  binding result: no binding
[1]
  EC50: 0.0533 µg/mL

B2: AB121 (antibody, V domains shown)
VH: EVQLVESGGTLVQPGGSLRLSCAASGFTFSDYWMNWVRQAPGKGLEWVANIKQDGSEKYYVDSLRGRVTISRDNAQNSVFLQMHSLSVEDTAVYYCARDGYTFGPATTELDHWGRGTLVSVSS
VL: QLVLTQPPSVSVSPGQTASITCSGDELRNKYTSWYQQKSGQSPVLVIYQDNNRPSGIPERFSGSQSGDTATLTISGTQAVDEADYYCQAWVSQTLVFGGGTKLTVL
notes: also called 06-AB-121; anti-Hyr1 mAb AB121
Human serum albumin
  binding result: no binding
[1]
  EC50: 0.0765 µg/mL

B3: AB120 (antibody, V domains shown)
VH: EVQLVQSGGGLVQPGGSLGLSCAASGFIFTSYAMTWVRQAPGKGLEWVSVITGNVGTSYYADSVKGRFTISRDNSKKTVSLQMNSLRAEDTAIYYCVKTRYDFSSGYYFDDWGQGTLVSVSS
VL: DIVMTQSPSSVSASVGDKVTITCRASQGISRWLAWYQQKPGEAPELLIYAASSLQSGVPSRFSGSGSGTDFTLTISSLQPEDFATYYCQQANSFPITFGQGTRLQIK
notes: also called 06-AB-120; anti-Hyr1 mAb AB120
Human serum albumin
  binding result: no binding
[1]
  EC50: 0.104 µg/mL

B4: AB122 (antibody, V domains shown)
VH: EVQLVQSGGGLAQPGRSLRLSCAASGFGFDDFAMHWVRQPPGKGLEWVSGLTWNGGSIDYAGSVRGRFTISRDNAKNSLFLQMNSLRAEDTALYYCAKGLSGGTMAPFDIWGQGTMVSVSS
VL: QAGLTQPPSVSVAPGQTATIPCGGNNIGSKHVHWYQQKPGQAPVAVVYDDSDRPSGVPERFSGSNSGNTATLTISSVEAGDEADYYCQVWDRSSDHFWLFGGGTRLTVL
notes: also called 06-AB-122; anti-Hyr1 mAb AB122
Human serum albumin
  binding result: no binding
[1]
  EC50: 0.0496 µg/mL
